In assay [1] the target is T1, Robo1 (ORIGEN Company, number: TP327713) (UniProt Q9Y6N7 26-1651, limits assumed).
T1 construct: also called receptor Robo1; target protein Robo1
The experiment in a line: SPR (BIAcore), Robo1 bound on CM5 chip. The method, then: (§1) The affinity constant between the prepared protein and Robo1 was determined by SPR (Surface Plasmon resonance BIAcore200). The Robo1 (ORIGEN Company, number: TP327713) was bound on CM5 chip and used to analysis the interaction between fusion protein Slit2D2-HSA and receptor Robo1. Kinetic measurements were carried out according to the method referred by Canziani et al. (2004, Anal. Biochem. 325:301-307), simultaneously, the same method was applied to measure the affinity between Slit2N protein (Slit2N is a protein at N-terminal of slit2 with a molecular weight of about 120 KDa) and Robo1.
In general terms: Surface plasmon resonance follows binding to a sensor surface in real time, without labels.

Assay [2] has as its target T1, Robo1 (ORIGEN Company, number: TP327713). The experiment in a line: SPR (BIAcore), Robo1 bound on CM5 chip; column head 'Kd (nM)'. The method, then:
as §1

One may read the kon as the rate constant with which the complex forms. Low readings indicate slow association, high ones fast association. In general, Kd refers to the free concentration of one partner at which half of the binding sites on the other are occupied at equilibrium, for simple one-to-one binding.

T1 sequence (Q9Y6N7 26-1651 limits assumed): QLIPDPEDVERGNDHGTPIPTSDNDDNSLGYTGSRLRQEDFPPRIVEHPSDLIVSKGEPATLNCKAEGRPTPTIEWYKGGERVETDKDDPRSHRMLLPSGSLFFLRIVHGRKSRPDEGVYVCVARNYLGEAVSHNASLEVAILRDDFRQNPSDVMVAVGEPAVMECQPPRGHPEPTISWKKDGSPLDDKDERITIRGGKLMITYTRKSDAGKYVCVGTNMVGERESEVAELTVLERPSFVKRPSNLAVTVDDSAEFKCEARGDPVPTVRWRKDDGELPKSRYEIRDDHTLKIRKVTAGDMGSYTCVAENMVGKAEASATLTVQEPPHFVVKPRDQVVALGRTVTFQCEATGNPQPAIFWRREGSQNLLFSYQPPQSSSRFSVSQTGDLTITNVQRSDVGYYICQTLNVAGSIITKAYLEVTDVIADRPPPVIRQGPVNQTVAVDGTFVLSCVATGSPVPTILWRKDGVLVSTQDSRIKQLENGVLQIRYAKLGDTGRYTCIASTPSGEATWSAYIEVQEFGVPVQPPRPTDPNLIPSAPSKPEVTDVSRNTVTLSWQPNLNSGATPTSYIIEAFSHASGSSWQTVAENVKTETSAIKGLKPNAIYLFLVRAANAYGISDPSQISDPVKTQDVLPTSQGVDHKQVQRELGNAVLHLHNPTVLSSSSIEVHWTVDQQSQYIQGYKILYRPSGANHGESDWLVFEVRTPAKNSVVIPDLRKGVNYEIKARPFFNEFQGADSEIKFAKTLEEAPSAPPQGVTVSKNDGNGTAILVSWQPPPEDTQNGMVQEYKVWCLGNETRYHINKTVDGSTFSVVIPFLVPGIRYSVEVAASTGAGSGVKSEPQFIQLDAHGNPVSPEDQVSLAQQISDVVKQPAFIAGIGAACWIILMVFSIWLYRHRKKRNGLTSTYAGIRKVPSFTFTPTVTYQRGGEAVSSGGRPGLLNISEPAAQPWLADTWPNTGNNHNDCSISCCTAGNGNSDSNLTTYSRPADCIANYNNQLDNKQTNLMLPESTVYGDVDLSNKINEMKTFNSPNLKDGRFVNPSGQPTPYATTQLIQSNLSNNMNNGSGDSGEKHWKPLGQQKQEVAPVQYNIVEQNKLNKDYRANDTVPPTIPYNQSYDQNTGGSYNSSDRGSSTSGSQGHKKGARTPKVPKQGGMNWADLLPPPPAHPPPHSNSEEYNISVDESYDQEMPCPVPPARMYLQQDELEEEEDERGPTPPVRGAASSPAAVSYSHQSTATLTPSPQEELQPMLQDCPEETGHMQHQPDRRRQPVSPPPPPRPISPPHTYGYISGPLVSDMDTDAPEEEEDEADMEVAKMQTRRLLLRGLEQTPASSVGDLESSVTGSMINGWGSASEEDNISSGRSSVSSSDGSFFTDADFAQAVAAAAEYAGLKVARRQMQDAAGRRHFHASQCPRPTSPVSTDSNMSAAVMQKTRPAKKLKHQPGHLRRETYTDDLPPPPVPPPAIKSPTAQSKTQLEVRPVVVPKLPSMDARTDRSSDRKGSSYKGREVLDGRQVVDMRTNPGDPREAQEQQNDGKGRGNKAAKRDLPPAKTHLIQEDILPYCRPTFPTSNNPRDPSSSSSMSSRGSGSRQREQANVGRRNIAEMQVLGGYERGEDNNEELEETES

B1: Slit2N protein (ligand, UniProt O94813 31-1121, looked up)
chain: QCSCSGSTVDCHGLALRSVPRNIPRNTERLDLNGNNITRITKTDFAGLRHLRVLQLMENKISTIERGAFQDLKELERLRLNRNHLQLFPELLFLGTAKLYRLDLSENQIQAIPRKAFRGAVDIKNLQLDYNQISCIEDGAFRALRDLEVLTLNNNNITRLSVASFNHMPKLRTFRLHSNNLYCDCHLAWLSDWLRQRPRVGLYTQCMGPSHLRGHNVAEVQKREFVCSGHQSFMAPSCSVLHCPAACTCSNNIVDCRGKGLTEIPTNLPETITEIRLEQNTIKVIPPGAFSPYKKLRRIDLSNNQISELAPDAFQGLRSLNSLVLYGNKITELPKSLFEGLFSLQLLLLNANKINCLRVDAFQDLHNLNLLSLYDNKLQTIAKGTFSPLRAIQTMHLAQNPFICDCHLKWLADYLHTNPIETSGARCTSPRRLANKRIGQIKSKKFRCSAKEQYFIPGTEDYRSKLSGDCFADLACPEKCRCEGTTVDCSNQKLNKIPEHIPQYTAELRLNNNEFTVLEATGIFKKLPQLRKINFSNNKITDIEEGAFEGASGVNEILLTSNRLENVQHKMFKGLESLKTLMLRSNRITCVGNDSFIGLSSVRLLSLYDNQITTVAPGAFDTLHSLSTLNLLANPFNCNCYLAWLGEWLRKKRIVTGNPRCQKPYFLKEIPIQDVAIQDFTCDDGNDDNSCSPLSRCPTECTCLDTVVRCSNKGLKVLPKGIPRDVTELYLDGNQFTLVPKELSNYKHLTLIDLSNNRISTLSNQSFSNMTQLLTLILSYNRLRCIPPRTFDGLKSLRLLSLHGNDISVVPEGAFNDLSALSHLAIGANPLYCDCNMQWLSDWVKSEYKEPGIARCAGPGEMADKLLLTTPSKKFTCQGPVDVNILAKCNPCLSNPCKNDGTCNSDPVDFYRCTCPYGFKGQDCDVPIHACISNPCKHGGTCHLKEGEEDGFWCICADGFEGENCEVNVDDCEDNDCENNSTCVDGINNYTCLCPPEYTGELCEEKLDFCAQDLNPCQHDSKCILTPKGFKCDCTPGYVGEHCDIDFDDCQDNKCKNGAHCTDAVNGYTCICPEGYSGLFCEFSPPMVLPR
notes: domain: protein at N-terminal of slit2 with a molecular weight of about 120 KDa; Comparator in the SPR experiment
B1 returned a kon in assay [1] of 744000 M⁻¹ s⁻¹. For the same molecule, in assay [2], the Kd was determined as 4.5 nM.
